Reference: paper PMC10743851

Target: actin (of the actin-chitin affinity column)
Assay: sequential dual-affinity chromatography; DBP of donor eluted from the 25-OH-D3/Sepharose column, loaded on the Actin/chitin column

“vitamin D3-binding protein (DBP) of donor (from UniProt P02774 17-474) (natural protein)” gave a percent bound of less than 10%.
